According to publication PMC9800739, “Epigenetic drugs in somatostatin type 2 receptor radionuclide theranostics and radiation transcriptomics in mouse pheochromocytoma models” (Theranostics, 2023):

Experiments:
[1] = system: MPC tumors; type: in vivo, mouse; details: mouse, in vivo
Protocol: (§1) During anesthesia, animals were continuously warmed at 37°C. […] Animals were sacrificed using CO2 inhalation and cervical dislocation.
(§2) 107 (30%), muscle (0%), kidneys (25%), and liver (35%).
(§3) 116 attenuation. Images were post-processed and analyzed using ROVER (ABX). Three-
118 kidneys (15%), and liver (25%). […]

[2] = system: MTT tumors; test: SPECT imaging of [177Lu]Lu-DOTA-TATE uptake in MTT allograft mice; details: mouse, in vivo
Protocol: as §1
(§4) Small animal single-photon emission computed tomography (SPECT) was initiated 22‒26 hours after radiotracer injection using the nanoSPECT/CT scanner (Mediso Medical Imaging Systems). […] Activity concentration in tissues was determined and reported as AV mean (VOI-averaged volume activity AV tissue 24h, MBq/mL). Details on quantitative SPECT image analysis are provided in Supplemental Information 1.5.
as §2, §3
(§5) 118 kidneys (15%), and liver (25%).
(§6) 119 1.6 Sstr2 promoter methylation analysis
(§7) 122 Bisulfite Kit (Qiagen, Hilden, Germany). Bisulfite-converted DNA was amplified using a
(§8) 125 Switzerland). Electropherograms were compared to PCR products amplified from bisulfite-
(§9) 127 an unmethylated 900bp-DNA fragment. The latter was generated by amplification of genomic
(§10) 129 of primers are provided in (Table S 2).

[3] = system: MPC tumors; test: SPECT imaging of [177Lu]Lu-DOTA-TATE uptake in MPC allograft mice; details: mouse, in vivo
Protocol: as §1, §4, §2, §3, §5, §6, §7
Amplicon size (195bp) was confirmed
as §8, §9, §10

[4] = system: midgut neuroendocrine liver metastases; details: after a short course of vorinostat; cited from earlier work

Structure (SMILES): C[C@@H](O)[C@H](NC(=O)[C@@H]1CSSC[C@H](NC(=O)[C@@H](Cc2ccccc2)NC(=O)CN2CCN(CC(=O)O)CCN(CC(=O)O)CCN(CC(=O)O)CC2)C(=O)N[C@@H](Cc2ccc(O)cc2)C(=O)N[C@H](Cc2c[nH]c3ccccc23)C(=O)N[C@@H](CCCCN)C(=O)N[C@@H]([C@@H](C)O)C(=O)N1)C(=O)O [[^64Cu]Cu-DOTA-TATE, metal not drawn]
- SUVmean plateau, MPC compared to MTT allografts [1]: 14 fold

Structure (SMILES): C[C@@H](O)[C@H](NC(=O)[C@@H]1CSSC[C@H](NC(=O)[C@@H](Cc2ccccc2)NC(=O)CN2CCN(CC(=O)O)CCN(CC(=O)O)CCN(CC(=O)O)CC2)C(=O)N[C@@H](Cc2ccc(O)cc2)C(=O)N[C@H](Cc2c[nH]c3ccccc23)C(=O)N[C@@H](CCCCN)C(=O)N[C@@H]([C@@H](C)O)C(=O)N1)C(=O)O [[^177Lu]Lu-DOTA-TATE, metal not drawn]
- AV max 24h tumor, sub-cohort [2]: 1.19 ± 0.10 MBq/mL
- mean tumor AV 24 h (single animal shown in image) [2]: 0.59 MBq/mL
- AV max 24h tumor, sub-cohort [3]: 9.52 ± 0.58 MBq/mL
- AV mean 24h, MPC compared to MTT allograft mice [3]: 8 fold
- mean tumor AV 24 h (single animal shown in image) [3]: 4.14 MBq/mL

Structure (SMILES): O=C(CCCCCCC(=O)Nc1ccccc1)NO [vorinostat]
- increase in [68Ga]Ga-DOTA-TATE uptake in tumors [4]: 10%
